The values that follow come from patent US20230265215A1 (OMEROS, published 2023).

“And” between values parts separate entries of the source, which are not always exact repeats. Equal entries are not always repeated. Where only a bound is given, the exact number is not on record here.

Experiment [1] deals with human MASP-2 (endogenous, in normal human serum) (human, UniProt O00187 16-686). In words: cell-based or functional assay.
A further experiment addresses T1, MASP-1 (human, UniProt P48740 20-699, limits assumed).
T1 construct: Species read from 'Recombinant human MASP-2 or C1r, C1s, CFD, MASP-1 and MASP-3'
T1 sequence (looked up): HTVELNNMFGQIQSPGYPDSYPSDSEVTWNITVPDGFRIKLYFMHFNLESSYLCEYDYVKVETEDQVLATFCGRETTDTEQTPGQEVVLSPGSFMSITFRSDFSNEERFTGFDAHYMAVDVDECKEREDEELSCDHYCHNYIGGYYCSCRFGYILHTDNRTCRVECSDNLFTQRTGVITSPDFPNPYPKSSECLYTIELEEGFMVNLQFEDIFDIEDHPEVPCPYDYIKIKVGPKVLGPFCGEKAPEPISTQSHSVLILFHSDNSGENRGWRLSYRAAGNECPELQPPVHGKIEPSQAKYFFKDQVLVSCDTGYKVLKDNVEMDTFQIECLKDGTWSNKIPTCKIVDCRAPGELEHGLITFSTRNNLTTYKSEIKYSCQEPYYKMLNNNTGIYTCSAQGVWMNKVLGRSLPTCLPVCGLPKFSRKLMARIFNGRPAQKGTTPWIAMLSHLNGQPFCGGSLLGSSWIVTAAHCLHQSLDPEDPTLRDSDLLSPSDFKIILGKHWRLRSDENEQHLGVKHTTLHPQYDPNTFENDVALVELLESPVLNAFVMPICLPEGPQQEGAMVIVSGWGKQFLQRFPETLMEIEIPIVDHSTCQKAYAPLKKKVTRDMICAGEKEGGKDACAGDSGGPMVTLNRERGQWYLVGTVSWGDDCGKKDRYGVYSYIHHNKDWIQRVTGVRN
The experiment can be described thus: solid phase ELISA, immobilized protease, mean apparent KD of two lots. From the text:
(§1) The apparent dissociation constant (KD) was estimated by nonlinear regression using a 4-parameter logistic model.
(§2) Fold selectivity calculated as KD(related serine protease)/mean KD(MASP-2).

Another experiment addresses T2, MASP-3 (human, UniProt P48740-2 20-728, limits assumed).
T2 construct: Species read from 'Recombinant human MASP-2 or C1r, C1s, CFD, MASP-1 and MASP-3'
T2 sequence (looked up): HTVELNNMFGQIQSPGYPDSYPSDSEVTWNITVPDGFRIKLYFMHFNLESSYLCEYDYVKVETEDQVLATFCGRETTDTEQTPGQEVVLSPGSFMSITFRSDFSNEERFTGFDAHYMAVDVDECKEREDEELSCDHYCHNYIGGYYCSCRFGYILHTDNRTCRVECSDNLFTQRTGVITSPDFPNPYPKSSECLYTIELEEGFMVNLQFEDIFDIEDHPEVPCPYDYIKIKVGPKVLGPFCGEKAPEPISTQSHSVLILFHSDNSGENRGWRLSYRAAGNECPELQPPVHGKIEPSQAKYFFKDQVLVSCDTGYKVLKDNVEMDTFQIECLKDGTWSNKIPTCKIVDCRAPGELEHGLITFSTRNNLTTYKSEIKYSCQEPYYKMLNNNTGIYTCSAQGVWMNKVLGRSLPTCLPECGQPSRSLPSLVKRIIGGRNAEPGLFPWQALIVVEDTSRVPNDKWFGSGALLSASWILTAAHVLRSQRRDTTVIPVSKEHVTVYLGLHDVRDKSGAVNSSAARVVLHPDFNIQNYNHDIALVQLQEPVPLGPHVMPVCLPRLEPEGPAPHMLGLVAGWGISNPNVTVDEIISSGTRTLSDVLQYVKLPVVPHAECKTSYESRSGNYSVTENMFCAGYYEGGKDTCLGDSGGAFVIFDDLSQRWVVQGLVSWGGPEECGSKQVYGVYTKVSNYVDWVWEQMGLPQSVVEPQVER
The description is as above.
Excerpt: as §1, §2

The target of another experiment is T3, CFD (human, UniProt P00746 26-253, limits assumed).
T3 construct: Species read from 'Recombinant human MASP-2 or C1r, C1s, CFD, MASP-1 and MASP-3'; also called factor D; complement factor D
Described as above.
Excerpt: as §1, §2

Experiment [2] has as its target Recombinant human MASP-2 (specificity ELISA, Example 14) (human, UniProt O00187 16-686, limits assumed). In words: solid phase ELISA, immobilized protease, apparent KD by 4-parameter logistic fit.
Excerpt: as §1, §2

The target in experiment [3] is Mouse MASP-2 CCP1/CCP2/SP (mouse, UniProt Q91WP0 287-685, limits assumed). The experiment can be described thus: BLI (Octet RED96), OMS858 on anti-human Fc capture sensors, MASP-2 protein 1.6-50 nM. On the procedure:
(§3) All measurements were conducted with the Octet RED96 system (ForteBio) using PBS containing 1% BSA and 0.02% Tween 20 as assay buffer. […] After one step of baseline, the captured sensors were submerged into wells containing different concentrations of the target proteins (1.6-50 nM) for the association step (120 sec), and then transferred to empty wells for the dissociation step (200 sec). In all experiments, the captured sensor was also dipped in a well containing no analyte to allow single reference subtraction to compensate for the natural dissociation of the captured antibody. The recorded binding sensorgrams were analyzed with Octet data analysis software (ForteBio) to determine binding affinity (KD).
A general note: In BLI a coated tip is dipped into the sample, and binding shifts an interference pattern.

Experiment [4] concerns the target T4, Human MASP-2 CCP1/CCP2/SP (6xHis, E. coli, Example 10) (human, UniProt O00187 287-686, limits assumed).
T4 construct: Expressed in BL21(DE3)pLysS E. coli and purified by IMAC; It may be the same protein as m6; also called catalytic fragment (CCP1-CCP2-SP domains) of human MASP-2; wild-type human H508
The description is as above. On the procedure:
as §3

In experiment [5] the target is T5, Human MASP-2 CCP1/CCP2/SP H508Q 'dog-like' (human, UniProt O00187 287-686, limits assumed).
T5 construct: also called dog-like variant of human MASP-2; MASP-2 H508Q
The description is as above. On the procedure: as §3

A further experiment has as its target T6, Cyno MASP-2 CCP1/CCP2/SP (cynomolgus monkey, UniProt O00187 287-686 (human entry), limits assumed).
T6 construct: also called cynomolgus monkey MASP-2 CCP1/CCP2/SP
Described as above. On the procedure:
as §3

Recombinant human MASP-2 (specificity ELISA, Example 14), sequence (O00187 16-686 limits assumed): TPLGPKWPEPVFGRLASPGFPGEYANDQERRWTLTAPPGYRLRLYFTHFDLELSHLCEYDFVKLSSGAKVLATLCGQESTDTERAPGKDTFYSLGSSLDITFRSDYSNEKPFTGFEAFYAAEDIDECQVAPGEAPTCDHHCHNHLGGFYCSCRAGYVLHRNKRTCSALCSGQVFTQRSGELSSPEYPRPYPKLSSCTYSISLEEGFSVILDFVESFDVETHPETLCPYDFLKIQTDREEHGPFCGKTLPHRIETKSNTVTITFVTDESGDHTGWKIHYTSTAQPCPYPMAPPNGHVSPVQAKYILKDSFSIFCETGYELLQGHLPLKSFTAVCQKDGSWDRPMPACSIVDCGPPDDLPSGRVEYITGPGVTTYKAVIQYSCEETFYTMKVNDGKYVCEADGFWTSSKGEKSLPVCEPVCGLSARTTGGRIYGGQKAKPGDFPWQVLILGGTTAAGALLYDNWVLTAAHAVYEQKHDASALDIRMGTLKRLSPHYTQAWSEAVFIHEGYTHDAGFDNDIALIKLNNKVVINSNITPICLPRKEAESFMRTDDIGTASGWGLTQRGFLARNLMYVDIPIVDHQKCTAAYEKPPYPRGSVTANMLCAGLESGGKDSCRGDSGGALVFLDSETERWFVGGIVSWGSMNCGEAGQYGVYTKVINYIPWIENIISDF
human MASP-2 (endogenous, in normal human serum), sequence (O00187 16-686 limits assumed): as above
T5 sequence (O00187 other isoform, or with tags, fused parts or gaps H508Q H508Q limits assumed): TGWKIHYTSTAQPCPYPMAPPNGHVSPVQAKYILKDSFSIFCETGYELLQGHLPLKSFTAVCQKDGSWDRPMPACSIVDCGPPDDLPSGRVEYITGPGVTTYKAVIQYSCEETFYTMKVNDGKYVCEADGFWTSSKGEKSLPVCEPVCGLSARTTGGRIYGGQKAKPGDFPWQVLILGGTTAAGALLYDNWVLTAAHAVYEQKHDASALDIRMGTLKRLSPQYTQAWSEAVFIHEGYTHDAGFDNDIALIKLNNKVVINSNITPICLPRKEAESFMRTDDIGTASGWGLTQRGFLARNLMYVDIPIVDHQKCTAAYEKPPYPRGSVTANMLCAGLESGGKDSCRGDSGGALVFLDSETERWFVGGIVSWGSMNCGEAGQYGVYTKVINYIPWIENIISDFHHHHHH
T3 sequence (P00746 26-253 limits assumed): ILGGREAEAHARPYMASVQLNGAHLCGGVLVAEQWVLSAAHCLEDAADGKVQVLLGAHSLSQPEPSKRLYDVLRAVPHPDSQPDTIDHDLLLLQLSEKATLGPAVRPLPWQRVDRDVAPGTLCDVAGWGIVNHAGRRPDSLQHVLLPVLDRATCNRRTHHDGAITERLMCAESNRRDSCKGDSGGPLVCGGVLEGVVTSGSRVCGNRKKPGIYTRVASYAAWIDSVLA
Mouse MASP-2 CCP1/CCP2/SP, sequence (Q91WP0 other isoform, or with tags, fused parts or gaps limits assumed): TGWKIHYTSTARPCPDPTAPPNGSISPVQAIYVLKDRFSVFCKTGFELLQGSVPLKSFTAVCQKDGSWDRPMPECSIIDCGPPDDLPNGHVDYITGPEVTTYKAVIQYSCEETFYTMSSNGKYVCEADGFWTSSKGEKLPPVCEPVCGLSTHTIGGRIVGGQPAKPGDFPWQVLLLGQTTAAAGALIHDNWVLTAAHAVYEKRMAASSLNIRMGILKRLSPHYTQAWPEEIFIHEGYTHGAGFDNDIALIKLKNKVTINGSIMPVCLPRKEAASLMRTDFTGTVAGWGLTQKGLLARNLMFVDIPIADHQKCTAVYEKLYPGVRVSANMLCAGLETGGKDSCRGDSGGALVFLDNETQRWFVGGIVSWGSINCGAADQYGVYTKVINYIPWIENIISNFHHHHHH
T6 sequence (O00187 other isoform, or with tags, fused parts or gaps limits assumed): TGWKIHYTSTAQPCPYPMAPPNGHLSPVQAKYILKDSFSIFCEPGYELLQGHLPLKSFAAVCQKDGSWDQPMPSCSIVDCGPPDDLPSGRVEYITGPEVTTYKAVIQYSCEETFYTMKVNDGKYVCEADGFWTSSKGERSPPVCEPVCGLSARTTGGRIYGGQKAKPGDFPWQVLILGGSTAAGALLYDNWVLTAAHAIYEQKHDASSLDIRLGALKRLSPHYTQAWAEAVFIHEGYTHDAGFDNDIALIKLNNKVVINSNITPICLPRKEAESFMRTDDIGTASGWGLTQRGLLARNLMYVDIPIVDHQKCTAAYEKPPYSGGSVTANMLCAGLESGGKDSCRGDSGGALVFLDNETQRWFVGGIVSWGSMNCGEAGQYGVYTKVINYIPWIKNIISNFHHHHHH
T4 sequence (O00187 other isoform, or with tags, fused parts or gaps limits assumed): as the sequence (O00187 other isoform, or with tags, fused parts or gaps H508Q H508Q limits assumed) above, with Q222H counted along it

B1: mAb OMS858 (humanized anti-MASP-2 antibody) (antibody, V domains shown)
VH: QVQLVQSGAEVKKPGASVKVSCKASGYTFTNHHMHWLRQAPGQGLEWIGDIDASDSETHYIEKFKDRATLTIDKSSSTAYMELSSLRSEDTAVYYCARGDITTTLRYFDVWGQGTLVTVSS
VL: DIQLTQSPSSLSASVGDRVTITCSASSSVRYMYWYQQKPGKAPKLLIYDTSNLASGVPSRFSGSGSGTDNTLTISSLQPEDFATYYCQQWSSYPLTFGQGTKVEIKR
notes: also called antibody OMS858; biotinylated OMS858
With B1, the “C5b-9 deposition, lectin pathway-specific conditions (Wieslab), human serum, IC50” value in experiment [1] was determined as 0.81 nM. Also, the “MAC deposition under lectin pathway-specific conditions (Wieslab COMPL300), IC50” value in [1] was about 1 nM. Moreover, the Kd in the experiment with MASP-1 is over 100 µg/mL; with MASP-3, over 100 µg/mL; with CFD, over 100 µg/mL; in experiment [2], 0.042 µg/mL and 0.051 µg/mL; in [3], 32.9 nM; in [4] it was 4.52 nM. The Kd in experiment [5] is about 2000 nM; with Cyno MASP-2 CCP1/CCP2/SP it was 8.23 nM.
